This test addresses hCD52 peptide mimetope (affinity measurement of Table 1) (human). Briefly: affinity on a hCD52 peptide mimetope, method not stated (footnote of Table 1).

Broadly, the Kd is the free concentration of one partner at which half of the binding sites on the other are occupied at equilibrium, for simple one-to-one binding.

In turn, Campath-1H (antibody) came in with a Kd of 68 nM. In other words, the double-digit nanomolar range.

For the origin of these results see patent US20240035022A1.
